Results as given in US20170152290A1 (CENTRO DE INGENIERIA GEN TICA Y BIOTECHNOLOGIA, published 2017).

How the values were obtained:
[1] = target: T1, activated human alfa-2-macroglobulin (α2M_MeNH2) (human, UniProt P01023 24-1474); experiment: competition ELISA, α2M* coated, DIIIE1PRSbiot as labelled ligand
T1 construct: mature
T1 sequence (looked up): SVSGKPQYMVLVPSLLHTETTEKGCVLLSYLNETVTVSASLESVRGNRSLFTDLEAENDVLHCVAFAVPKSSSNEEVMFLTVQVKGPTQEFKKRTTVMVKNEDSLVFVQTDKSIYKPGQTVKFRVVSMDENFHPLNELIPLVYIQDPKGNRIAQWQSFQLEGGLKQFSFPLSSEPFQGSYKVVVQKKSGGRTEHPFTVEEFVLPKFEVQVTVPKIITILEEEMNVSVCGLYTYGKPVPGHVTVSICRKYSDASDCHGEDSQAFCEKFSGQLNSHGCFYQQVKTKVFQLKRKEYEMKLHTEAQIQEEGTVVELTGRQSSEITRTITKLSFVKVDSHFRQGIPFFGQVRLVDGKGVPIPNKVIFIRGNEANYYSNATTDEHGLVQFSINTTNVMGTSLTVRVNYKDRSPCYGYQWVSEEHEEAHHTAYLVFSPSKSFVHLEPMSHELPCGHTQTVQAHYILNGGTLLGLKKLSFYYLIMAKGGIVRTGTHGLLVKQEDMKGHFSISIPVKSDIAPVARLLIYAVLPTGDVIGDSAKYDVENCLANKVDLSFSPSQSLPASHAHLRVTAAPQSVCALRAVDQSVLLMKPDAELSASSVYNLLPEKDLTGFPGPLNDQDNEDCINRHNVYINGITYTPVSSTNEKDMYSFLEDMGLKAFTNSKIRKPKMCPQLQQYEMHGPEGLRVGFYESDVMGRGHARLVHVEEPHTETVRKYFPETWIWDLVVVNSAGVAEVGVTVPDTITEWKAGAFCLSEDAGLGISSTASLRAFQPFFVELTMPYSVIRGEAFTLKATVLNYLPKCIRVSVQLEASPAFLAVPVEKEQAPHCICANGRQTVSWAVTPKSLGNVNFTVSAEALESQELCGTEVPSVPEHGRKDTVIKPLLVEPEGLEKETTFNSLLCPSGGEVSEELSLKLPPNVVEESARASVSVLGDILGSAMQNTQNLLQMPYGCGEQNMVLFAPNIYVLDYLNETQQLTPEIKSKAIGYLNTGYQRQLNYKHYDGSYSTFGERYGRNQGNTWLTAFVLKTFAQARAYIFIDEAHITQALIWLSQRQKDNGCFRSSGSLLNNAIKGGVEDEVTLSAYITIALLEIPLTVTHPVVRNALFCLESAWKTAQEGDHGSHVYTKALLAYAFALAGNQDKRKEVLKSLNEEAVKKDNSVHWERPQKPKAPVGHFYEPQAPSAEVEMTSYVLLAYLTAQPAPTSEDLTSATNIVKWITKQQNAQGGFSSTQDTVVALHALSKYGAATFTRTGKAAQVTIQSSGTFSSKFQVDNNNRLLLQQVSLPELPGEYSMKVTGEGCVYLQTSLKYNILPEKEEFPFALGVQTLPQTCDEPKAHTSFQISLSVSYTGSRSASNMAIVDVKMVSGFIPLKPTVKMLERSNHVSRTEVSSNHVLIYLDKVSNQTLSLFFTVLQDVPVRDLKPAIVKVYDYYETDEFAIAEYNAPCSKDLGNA

[2] = target: recombinant Human Serum Albumin (rHSA) (human, UniProt P02768 25-609); experiment: SPR (Biacore X), CM5 chip, sLRP1-CIV immobilised on Fc1 and rHSA on Fc2, analyte at 100 nM

B1: DIIIE1PRS alanine mutant, variant E375 (other)
chain: MDKLTLKGMSYVMCTGSFKLEKEVAETQHGTVLVQVKYEGTDAPCKIPFSTQDEKGVTQNGRLITANPIVTDKEKPVNIETEPPFGASYIVVGAGEKALKLSWFKKGSSIGVDHHHHHH
notes: also called Glu375 to Ala
fold increase of IC50 against wild-type DIIIE1PRS [1]: ≥ 2 fold

B2: DIIIE1PRS alanine mutant, variant K385 (other)
chain: MDKLTLKGMSYVMCTGSFKLEKEVAETQHGTVLVQVKYEGTDAPCKIPFSTQDEKGVTQNGRLITANPIVTDKEKPVNIETEPPFGESYIVVGAGEAALKLSWFKKGSSIGVDHHHHHH
notes: also called Lys385 to Ala
fold increase of IC50 against wild-type DIIIE1PRS [1]: > 10 fold
fold reduction of affinity against wild-type DIIIE1PRS [1]: > 22 fold

B3: DIIIE1PRS alanine mutant, variant N366 (other)
chain: MDKLTLKGMSYVMCTGSFKLEKEVAETQHGTVLVQVKYEGTDAPCKIPFSTQDEKGVTQNGRLITANPIVTDKEKPVAIETEPPFGESYIVVGAGEKALKLSWFKKGSSIGVDHHHHHH
notes: also called Asn366 to Ala
fold increase of IC50 against wild-type DIIIE1PRS [1]: ≥ 2 fold

B4: DIIIE1PRS alanine mutant, variant K363 (other)
chain: MDKLTLKGMSYVMCTGSFKLEKEVAETQHGTVLVQVKYEGTDAPCKIPFSTQDEKGVTQNGRLITANPIVTDKEAPVNIETEPPFGESYIVVGAGEKALKLSWFKKGSSIGVDHHHHHH
notes: also called Lys363 to Ala
fold increase of IC50 against wild-type DIIIE1PRS [1]: ≥ 2 fold

B5: DIIIE1PRS alanine mutant, variant E362 (other)
chain: MDKLTLKGMSYVMCTGSFKLEKEVAETQHGTVLVQVKYEGTDAPCKIPFSTQDEKGVTQNGRLITANPIVTDKAKPVNIETEPPFGESYIVVGAGEKALKLSWFKKGSSIGVDHHHHHH
fold increase of IC50 against wild-type DIIIE1PRS [1]: > 10 fold

B6: DIIIE1PRS alanine mutant, variant E342 (other)
chain: MDKLTLKGMSYVMCTGSFKLEKEVAETQHGTVLVQVKYEGTDAPCKIPFSTQDAKGVTQNGRLITANPIVTDKEKPVNIETEPPFGESYIVVGAGEKALKLSWFKKGSSIGVDHHHHHH
notes: also called Glu342 to Ala
fold increase of IC50 against wild-type DIIIE1PRS [1]: ≥ 2 fold

B7: DIIIE1PRS alanine mutant, variant R350 (other)
chain: MDKLTLKGMSYVMCTGSFKLEKEVAETQHGTVLVQVKYEGTDAPCKIPFSTQDEKGVTQNGALITANPIVTDKEKPVNIETEPPFGESYIVVGAGEKALKLSWFKKGSSIGVDHHHHHH
notes: also called Arg350 to Ala
fold increase of IC50 against wild-type DIIIE1PRS [1]: ≥ 2 fold

B8: DIIIE1PRS alanine mutant, variant G374 (other)
chain: MDKLTLKGMSYVMCTGSFKLEKEVAETQHGTVLVQVKYEGTDAPCKIPFSTQDEKGVTQNGRLITANPIVTDKEKPVNIETEPPFAESYIVVGAGEKALKLSWFKKGSSIGVDHHHHHH
notes: also called Gly374 to Ala
fold increase of IC50 against wild-type DIIIE1PRS [1]: ≥ 2 fold

B9: DIIIE1PRS alanine mutant, variant T346 (other)
chain: MDKLTLKGMSYVMCTGSFKLEKEVAETQHGTVLVQVKYEGTDAPCKIPFSTQDEKGVAQNGRLITANPIVTDKEKPVNIETEPPFGESYIVVGAGEKALKLSWFKKGSSIGVDHHHHHH
fold increase of IC50 against wild-type DIIIE1PRS [1]: ≥ 2 fold

B10: DIIIE1PRS alanine mutant, variant V365 (other)
chain: MDKLTLKGMSYVMCTGSFKLEKEVAETQHGTVLVQVKYEGTDAPCKIPFSTQDEKGVTQNGRLITANPIVTDKEKPANIETEPPFGESYIVVGAGEKALKLSWFKKGSSIGVDHHHHHH
notes: also called Val365 to Ala
fold increase of IC50 against wild-type DIIIE1PRS [1]: > 10 fold

B11: DIIIE1PRS alanine mutant, variant P372 (other)
chain: MDKLTLKGMSYVMCTGSFKLEKEVAETQHGTVLVQVKYEGTDAPCKIPFSTQDEKGVTQNGRLITANPIVTDKEKPVNIETEPAFGESYIVVGAGEKALKLSWFKKGSSIGVDHHHHHH
notes: also called Pro372 to Ala
fold increase of IC50 against wild-type DIIIE1PRS [1]: ≥ 2 fold

B12: DIIIE1PRS alanine mutant, variant K361 (other)
chain: MDKLTLKGMSYVMCTGSFKLEKEVAETQHGTVLVQVKYEGTDAPCKIPFSTQDEKGVTQNGRLITANPIVTDAEKPVNIETEPPFGESYIVVGAGEKALKLSWFKKGSSIGVDHHHHHH
notes: also called Lys361 to Ala
fold increase of IC50 against wild-type DIIIE1PRS [1]: > 10 fold

B13: DIIIE1PRS alanine mutant, variant P364 (other)
chain: MDKLTLKGMSYVMCTGSFKLEKEVAETQHGTVLVQVKYEGTDAPCKIPFSTQDEKGVTQNGRLITANPIVTDKEKAVNIETEPPFGESYIVVGAGEKALKLSWFKKGSSIGVDHHHHHH
fold increase of IC50 against wild-type DIIIE1PRS [1]: > 10 fold

B14: Receptor-Associated Protein (RAP) (ligand, UniProt P30533 35-357, looked up)
chain: YSREKNQPKPSPKRESGEEFRMEKLNQLWEKAQRLHLPPVRLAELHADLKIQERDELAWKKLKLDGLDEDGEKEARLIRNLNVILAKYGLDGKKDARQVTSNSLSGTQEDGLDDPRLEKLWHKAKTSGKFSGEELDKLWREFLHHKEKVHEYNVLLETLSRTEEIHENVISPSDLSDIKGSVLHSRHTELKEKLRSINQGLDRLRRVSHQGYSTEAEFEEPRVIDLWDLAQSANLTDKELEAFREELKHFEAKIEKHNHYQKQLEIAHEKLRHAESVGDGERVSRSREKHALLEGRTKELGYTVKKHLQDLSGRISRARHNEL
binding result [2]: no binding (tested: 100 nM)
